The text below walks through data of publication PMC4558565.

B1: bZIP63 (protoplast two-hybrid fusion) [Arabidopsis thaliana] / bZIP63 (protoplast two-hybrid fusion) [Arabidopsis thaliana] (parent)
chain 1: MEKVFSDEEISGNHHWSVNGMTSLNRSASEWAFNRFIQESSAAADDGESTTACGVSVSSPPNVPVDSEEYRAFLKSKLNLACAAVAMKRGTFIKPQDTSGRSDNGGANESEQASLASSKATPMMSSAITSGSELSGDEEEADGETNMNPTNVKRVKRMLSNRESARRSRRRKQAHLSELETQVSQLRVENSKLMKGLTDVTQTFNDASVENRVLKANIETLRAKVKMAEETVKRLTGFNPMFHNMPQIVSTVSLPSETSNSPDTTSSQVTTPEIISSGNKGKALIGCKMNRTASMRRVESLEHLQKRIRSVGDQ
chain 2: B1 chain 1
B2: bZIP63 (protoplast two-hybrid fusion) [Arabidopsis thaliana] / bZIP11 (protoplast two-hybrid fusion) [Arabidopsis thaliana] (parent)
chain 1: B1 chain 1
chain 2: MESSSSGTTSSTIQTSSGSEESLMEQRKRKRMLSNRESARRSRMKKQKLLDDLTAQVNHLKKENTEIVTSVSITTQHYLTVEAENSVLRAQLDELNHRLQSLNDIIEFLDSSNNNNNNNMGMCSNPLVGLECDDFFVNQMNMSYIMNQPLMASSDALMY

Variants of B1 are the subject of experiment [1]. As to the kind of experiment: protoplast two-hybrid (P2H) assay. The conditions noted are these: for response (% of signal with wt bZIP63 and AKIN10): - AKIN10 (no co-transformation), parent: 13, read off a plot; for percent of parent: with bZIP63 (protoplast two-hybrid fusion) [Arabidopsis thaliana], + AKIN10 co-transformation, parent: 100, read off a plot.

The variants in experiment [2] derive from B2. Kind of experiment: protoplast two-hybrid (P2H) assay. The conditions noted are these: for response (% of signal with wt bZIP63 and AKIN10): - AKIN10 (no co-transformation), parent: 8, read off a plot; for percent of parent: with bZIP11 (protoplast two-hybrid fusion) [Arabidopsis thaliana], + AKIN10 co-transformation, parent: 100, read off a plot.

As for chain 1 S294A, in experiment [1], the response (% of signal with wt bZIP63 and AKIN10) came to 10; the percent of parent worked out at 75%.

Consider chain 1 S29A, for which, in experiment [1], the response (% of signal with wt bZIP63 and AKIN10) amounted to 7; the percent of parent is 44%.

Turning to chain 1 S29A S294A S300A, in experiment [1], the response (% of signal with wt bZIP63 and AKIN10) amounted to 11.

For the variant chain 1 S294A S300A, in experiment [1], the response (% of signal with wt bZIP63 and AKIN10) came out at 10; the percent of parent came to 67%.

As for chain 1 S300A, in experiment [1], the response (% of signal with wt bZIP63 and AKIN10) was 8; the percent of parent amounted to 79%.

In the case of chain 1 S294A S300A, in experiment [2], the response (% of signal with wt bZIP63 and AKIN10) came to 10; the percent of parent was 110%.

chain 1 S300A: in experiment [2], the response (% of signal with wt bZIP63 and AKIN10) is 13; the percent of parent was 100%.

Consider chain 1 S29A S294A S300A, for which, in experiment [2], the response (% of signal with wt bZIP63 and AKIN10) was 7.5; the percent of parent is 27%.

Regarding chain 1 S294A, in experiment [2], the response (% of signal with wt bZIP63 and AKIN10) was 7; the percent of parent was 110%.

Regarding chain 1 S29A, in experiment [2], the response (% of signal with wt bZIP63 and AKIN10) was determined as 11; the percent of parent was found to be 32%.
